From the supplement of paper PMC7125110
± gives the standard error. Fewer inactive variants are shown than the library holds.

B1: glmS ribozyme (parent)
chain: AUAAAAGCGCCAGAACUACAGAAAUGUAGUUGACGAGGAGGAGGUUUAUCGAAUUUUCGGCGGAUGCCUCCAAA

Variants of: B1
Test: self-cleavage kobs at 640 uM GlcN6P; higher = faster cleavage; RNA array
Conditions: with glucosamine-6-phosphate
How it was run: (§1)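 On sequenced MiSeq chips, barcoded ribozyme variants were made in situ by E. coli RNA polymerase and followed at 37 °C through a hybridised Cy3 probe. Glucosamine-6-phosphate was flowed in at 40 μM to 10 mM in HEPES/KCl/Mg(OAc)2 buffer. Exponential fits to normalised per-tile medians gave kobs, and weighted Michaelis–Menten fits gave kcat and KM.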

self-cleavage kobs at 640 uM GlcN6P, 0.000127 ± 5.8e-05 s⁻¹:
C50G U57A A64U

self-cleavage kobs at 640 uM GlcN6P, 0.000124 ± 2.1e-05 s⁻¹:
A36C C70G

self-cleavage kobs at 640 uM GlcN6P, 8.62e-05 ± 2.5e-05 s⁻¹:
C50A C61G C68U

self-cleavage kobs at 640 uM GlcN6P, 0.000646 ± 0.00029 s⁻¹:
C58U C67U C68U C71U

self-cleavage kobs at 640 uM GlcN6P, 7.88e-05 ± 2.3e-05 s⁻¹:
A52G U55A C71A

self-cleavage kobs at 640 uM GlcN6P, 0.000552 ± 9.7e-05 s⁻¹:
G37A A53G A64G

self-cleavage kobs at 640 uM GlcN6P, 5.68e-05 ± 2.4e-05 s⁻¹:
A52C C67U C71G

self-cleavage kobs at 640 uM GlcN6P, 9.79e-05 ± 2.9e-05 s⁻¹:
C58G A64G U65A G66U C67G U69C

self-cleavage kobs at 640 uM GlcN6P, 8.08e-05 ± 3e-05 s⁻¹:
A33C U47G

self-cleavage kobs at 640 uM GlcN6P, 0.000165 ± 4.5e-05 s⁻¹:
A39U U56A U65G

self-cleavage kobs at 640 uM GlcN6P, 4.51e-05 ± 1.9e-05 s⁻¹:
G40C U65C

self-cleavage kobs at 640 uM GlcN6P, 0.000333 ± 0.00015 s⁻¹:
G38U U56G C70A

self-cleavage kobs at 640 uM GlcN6P, 0.000467 ± 0.00023 s⁻¹:
G32U G35C U46A C67G C68A

self-cleavage kobs at 640 uM GlcN6P, 0.000165 ± 5.4e-05 s⁻¹:
A52C U57C C68G C70G

self-cleavage kobs at 640 uM GlcN6P, 0.000204 ± 4.5e-05 s⁻¹:
U45G U56C

self-cleavage kobs at 640 uM GlcN6P, 8.05e-05 ± 1.8e-05 s⁻¹:
U55G U56A C71G

self-cleavage kobs at 640 uM GlcN6P, 5.27e-05 ± 2.4e-05 s⁻¹:
C50U A53U C70G

self-cleavage kobs at 640 uM GlcN6P, 6.22e-05 ± 2.6e-05 s⁻¹:
G38A U57A G66U C70A

self-cleavage kobs at 640 uM GlcN6P, 0.000159 ± 6.2e-05 s⁻¹:
G43A G44A C68U

self-cleavage kobs at 640 uM GlcN6P, 5.62e-05 ± 2.2e-05 s⁻¹:
G41U U45G U47A C71U

self-cleavage kobs at 640 uM GlcN6P, < 1e-05 s⁻¹:
G38C G51U G59A G60A
A33U G40U A52U U57G
A33U G35U U54A
U45C U47G G51U
G37C G62U C68U
G35C G40C G60C
G35C C67G C71G
U45G A53G G62A
G37A G41A A48G
G37U A39U A52C G59A
G37A G41A A42C U46C
G51U G62U C70U
G38U U57A C71G
G35C G37U
G32A A36G A39C G41U G43U
U49C U55A
G40U G43U G51C U65C
G44U U46A A53U C70G
U47C U54G G60A
G35A U46G C61G
G35C G59U C61A
C34U A36G G44A C58A C68U
G37U G51A G66C
G41C U45C C50U
G51A G63U U65A
G38C U45C C70A
G41A G51C A64C
G32C G40C U57G
G35U G40C U49C G51A
C34U G38U G43C
A42U C70A C71G
A36U A48U G60U C68A
A42U A53U G59C G62C
G35C G37U U56G
A52C A53G A64U
A36U A39U U45C C58U
G35U U57G C71A
A33C U47C U65G
A39C A42G G60C
A42U C50G G62A C71U
A36U A48C C67G
U45A U54A G60A G66C
G44A C50U C67U
A48U C58U A64C
A33C A42C U47G U56G
U49A G59U C71G
G41A G44U C70A
G40C U47C C68G
A33U U54A G60C
G40A A52C G59A C68U
U46A C50U U55C
G41A G51C G63A C67A
A33C G38C G51C A64C
G32U G41A C68A
U47G U49A A52G
G41U G44U U45C
G43U U47C G66U
A42C G43C C70U
C34U C58G U65G
G41U U47G C50G
G37A G63U A64C
A36U U46C U49A C68G
A36U U56A
C34U G43U G59A G62C C67A
G40U G59C C71U
C34A A42C C70A
G41A U65C
A33G G40U C58A C67A

self-cleavage kobs at 640 uM GlcN6P, 3.47e-05 ± 1.3e-05 s⁻¹:
G62U U69G

self-cleavage kobs at 640 uM GlcN6P, 7.31e-05 ± 1.7e-05 s⁻¹:
U54A C61G C71G

self-cleavage kobs at 640 uM GlcN6P, 5.04e-05 ± 1.8e-05 s⁻¹:
U49A C50U C67A C68G C71A

self-cleavage kobs at 640 uM GlcN6P, 0.000547 ± 9.5e-05 s⁻¹:
A39U A53C U55C

Variants of: B1
Test: self-cleavage kobs at 2500 uM GlcN6P; higher = faster cleavage; RNA array
Conditions: with glucosamine-6-phosphate
How it was run: as §1

self-cleavage kobs at 2500 uM GlcN6P, 0.00232 ± 0.00029 s⁻¹:
A39U A53C U55C

self-cleavage kobs at 2500 uM GlcN6P, 6.89e-05 ± 1.6e-05 s⁻¹:
A6G A14C A53G

self-cleavage kobs at 2500 uM GlcN6P, 0.00103 ± 0.0003 s⁻¹:
G37A A53G A64G

self-cleavage kobs at 2500 uM GlcN6P, 4.95e-05 ± 1.9e-05 s⁻¹:
G9A C50G U55A C67G

self-cleavage kobs at 2500 uM GlcN6P, 0.000618 ± 0.00019 s⁻¹:
A6U C11U U57G C58G C61A C68U C70U

self-cleavage kobs at 2500 uM GlcN6P, 9.24e-05 ± 3.5e-05 s⁻¹:
A52C C67U C71G

self-cleavage kobs at 2500 uM GlcN6P, 0.000169 ± 7.2e-05 s⁻¹:
A52G U55A C71A

self-cleavage kobs at 2500 uM GlcN6P, 0.000272 ± 7.1e-05 s⁻¹:
U45G U56C

self-cleavage kobs at 2500 uM GlcN6P, 0.000214 ± 8.3e-05 s⁻¹:
G62U U69G

self-cleavage kobs at 2500 uM GlcN6P, < 1e-05 s⁻¹:
C8A A33C G40A U47G
A6G C34U G40C
A33U G40U A52U U57G
C8A A36G A53G
G7U G38U G66U
G37C G62U C68U
A6G G29A G60A
G7C G21U C67G
U45G A53G G62A
G7C A53G C70A
G37A G41A A48G
A6C G29A G37U
G7A U31C A39G A52U
C8U G29U A36U
G9A A42U
G7U G9U U56A G59U
G7U C11A A14C A15C A33C U46G A48G C61U C67A
C8G G35U A39C
C8A G41A U65C
G38U U57A C71G
C8A C61G A64G
G7U U54C C61A
G7U C10G G43U
A6G A14C G40C A53U G60C
U49C U55A
C8A U45G U54G G66A
G7U U47G A52U
G7U C16U U46A
C8A A53C U55C G60U C68G
G7C C34A U46G G63C
G7C C11G A12U
A6C U31C G41C A42G U45G G59C G66U
G7U U49A U65G
G35A U46G C61G
C34U A36G G44A C58A C68U
A6G G7C A36U A39U
G41C U45C C50U
G38C U45C C70A
C8G A15U U55C
C8G A64G U69A C71U
A6G G41U U46G G60C
A36U A48U G60U C68A
A42U A53U G59C G62C
A52C A53G A64U
A6G G43U G44A A48U G63A
A36U A39U U45C C58U
G35U U57G C71A
A33C U47C U65G
A39C A42G G60C
A6C G7C C10U G29C C58G
A6U C10G A39U C71U
A42U C50G G62A C71U
G9A A33C A39C U57A
A36U A48C C67G
A6G A39U U49C
G9A C11G A33U G35A C58A C70G
G7A U31C G35C A42C U46G U54G
A48U C58U A64C
C8U A39U C67G
G7C A42G G59U
A6U A33U C68G
C8U C10G G38A
A6U G35U G59U
C8U G32U U45C
C8G G40U G41C
A33U U54A G60C
C8G U46G A48U U55G G66U C70U
A6C G13U A33U A52C G63C
G7U U45A C58A
G41U G44U U45C
C8A G32U A48C
G7C C10U G13C G66U
A6U G13A U49C
C8G G37A A39U
C34U G43U G59A G62C C67A
G40U G59C C71U
A33G G40U C58A C67A

self-cleavage kobs at 2500 uM GlcN6P, 0.000356 ± 0.00014 s⁻¹:
A6U C16G C71G

self-cleavage kobs at 2500 uM GlcN6P, 6.05e-05 ± 2.3e-05 s⁻¹:
G38A U57A G66U C70A

self-cleavage kobs at 2500 uM GlcN6P, 0.000133 ± 5.6e-05 s⁻¹:
A52C U57C C68G C70G

self-cleavage kobs at 2500 uM GlcN6P, 0.000139 ± 4.6e-05 s⁻¹:
U54A C61G C71G

self-cleavage kobs at 2500 uM GlcN6P, 0.000457 ± 0.00011 s⁻¹:
C8G A33G A52G A53G C68A U69G

Variants of: B1
Test: self-cleavage kobs at 10000 uM GlcN6P; higher = faster cleavage; RNA array
Conditions: with glucosamine-6-phosphate
How it was run: as §1

self-cleavage kobs at 10000 uM GlcN6P, 6.4e-05 ± 1.3e-05 s⁻¹:
A33C U47G

self-cleavage kobs at 10000 uM GlcN6P, 0.00113 ± 0.00025 s⁻¹:
A39U U56A U65G

self-cleavage kobs at 10000 uM GlcN6P, < 1e-05 s⁻¹:
A33U G35U U54A
A6C U31C G41C A42G U45G G59C G66U
G35A U46G C61G
A33C G38C G51C A64C
G37A G63U A64C
A36U U56A

self-cleavage kobs at 10000 uM GlcN6P, 0.000172 ± 3.4e-05 s⁻¹:
G40C U65C

self-cleavage kobs at 10000 uM GlcN6P, 0.000987 ± 0.00015 s⁻¹:
U45G U56C

self-cleavage kobs at 10000 uM GlcN6P, 0.00293 ± 0.0007 s⁻¹:
G37A A53G A64G
